Laboratory results taken from the supplement of paper PMC10567573.

B1: FAM189A2 (parent)
chain: PRCDLVDLGEGKICFCCEEFQPAK

Variants of: B1
Experiment: protein stability index of a GFP-peptide fusion (GPS, HEK-293T) (PSI 1-6); higher = more stable
Settings: c terminus: a fixed tail appended
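Also: lentivirally expressed fusions sorted by FACS into six bins by GFP to DsRed ratio, PSI derived from sequencing read proportions per bin multiplied by bin number.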

Variant | protein stability index
PRCDLLDLGEGKICFCCEEFQPAK [V6L] | 2.6
PRCDPVDLGEGKICFCCEEFQPAK [L5P] | 3.39
PRCDTVDLGEGKICFCCEEFQPAK [L5T] | 3.47
PRCDNVDLGEGKICFCCEEFQPAK [L5N] | 3.52
PRCDVVDLGEGKICFCCEEFQPAK [L5V] | 3.02
PRCDRVDLGEGKICFCCEEFQPAK [L5R] | 2.98
PRCDYVDLGEGKICFCCEEFQPAK [L5Y] | 2.85
PRCDSVDLGEGKICFCCEEFQPAK [L5S] | 3.03
PRCDQVDLGEGKICFCCEEFQPAK [L5Q] | 3.73
PRCDWVDLGEGKICFCCEEFQPAK [L5W] | 2.16
PRCDLVDLGYGKICFCCEEFQPAK [E10Y] | 2.29
PRCDLVDLGSGKICFCCEEFQPAK [E10S] | 2.36
PRCDLVDLGLGKICFCCEEFQPAK [E10L] | 2.08
PRCDLVDLGCGKICFCCEEFQPAK [E10C] | 2.63
PRCDLVDLGRGKICFCCEEFQPAK [E10R] | 2.54
PRCDLVDLGQGKICFCCEEFQPAK [E10Q] | 2.73
PRCDLVDLGMGKICFCCEEFQPAK [E10M] | 2.01
PRCDLVDLGDGKICFCCEEFQPAK [E10D] | 3
PRCDLVDLGPGKICFCCEEFQPAK [E10P] | 2.88
PRCDLVDLGKGKICFCCEEFQPAK [E10K] | 2.82
PRCDLVDLGGGKICFCCEEFQPAK [E10G] | 3
PRCDLVDLGAGKICFCCEEFQPAK [E10A] | 2.56
PRCDLVDLGTGKICFCCEEFQPAK [E10T] | 2.75
PRCDLVDLGVGKICFCCEEFQPAK [E10V] | 2.26

Variant | protein stability index
PRCDLVDLGNGKICFCCEEFQPAK [E10N] | 2.65
PRCDLVDLGIGKICFCCEEFQPAK [E10I] | 2.08
PRCDLVDLGFGKICFCCEEFQPAK [E10F] | 2.35
PRCDLVDLGWGKICFCCEEFQPAK [E10W] | 1.85
PRCDLVDLGHGKICFCCEEFQPAK [E10H] | 2.88
PRCDLVDDGEGKICFCCEEFQPAK [L8D] | 3.67
PRCDLVDCGEGKICFCCEEFQPAK [L8C] | 3.87
PRCDLVDQGEGKICFCCEEFQPAK [L8Q] | 4.32
PRCDLVDMGEGKICFCCEEFQPAK [L8M] | 3.74
PRCDLVDIGEGKICFCCEEFQPAK [L8I] | 3.13
PRCDLVDKGEGKICFCCEEFQPAK [L8K] | 3.41
PRCDLVDHGEGKICFCCEEFQPAK [L8H] | 3.98
PRCDLVDPGEGKICFCCEEFQPAK [L8P] | 3.58
PRCDLVDVGEGKICFCCEEFQPAK [L8V] | 2.97
PRCDLVDGGEGKICFCCEEFQPAK [L8G] | 4.48
PRCDLVDYGEGKICFCCEEFQPAK [L8Y] | 2.21
PRCDLVDFGEGKICFCCEEFQPAK [L8F] | 3.46
PRCDLVDTGEGKICFCCEEFQPAK [L8T] | 3.92
PRCDLVDRGEGKICFCCEEFQPAK [L8R] | 3.91
PRCDLVDNGEGKICFCCEEFQPAK [L8N] | 3.73
PRCDLVDWGEGKICFCCEEFQPAK [L8W] | 3.23
PRCDLVDAGEGKICFCCEEFQPAK [L8A] | 3.54
PRCDLVDEGEGKICFCCEEFQPAK [L8E] | 3.65
PRCDLVDSGEGKICFCCEEFQPAK [L8S] | 3.97

Variant | protein stability index
PRCDLVDLGEGKICHCCEEFQPAK [F15H] | 3.77
PRCDLVDLGEGKICACCEEFQPAK [F15A] | 3.94
PRCDLVDLGEGKICCCCEEFQPAK [F15C] | 3.86
PRCDLVDLGEGKICKCCEEFQPAK [F15K] | 4.07
PRCDLVDLGEGKICGCCEEFQPAK [F15G] | 3.79
PRCDLVDLGEGKICDCCEEFQPAK [F15D] | 4.74
PRCDLVDLGEGKICICCEEFQPAK [F15I] | 2.38
PRCDLVDLGEGKICECCEEFQPAK [F15E] | 4.19
PRCDLVDLGERKICFCCEEFQPAK [G11R] | 2.55
PRCDLVDLGECKICFCCEEFQPAK [G11C] | 2.45
PRCDLVDLGEIKICFCCEEFQPAK [G11I] | 1.86
PRCDLVDLGEYKICFCCEEFQPAK [G11Y] | 2.52
PRCDLVDLGEFKICFCCEEFQPAK [G11F] | 1.51
PRCDLVDLGEWKICFCCEEFQPAK [G11W] | 2.69
PRCDLVDLGELKICFCCEEFQPAK [G11L] | 1.95
PRCDLVDLGEAKICFCCEEFQPAK [G11A] | 2.63
PRCDLVDLGEKKICFCCEEFQPAK [G11K] | 2.4
PRCDLVDLGEHKICFCCEEFQPAK [G11H] | 2.81
PRCDLVDLGESKICFCCEEFQPAK [G11S] | 2.8
PRCDLVDLGENKICFCCEEFQPAK [G11N] | 3.33
PRCDLVDLGEMKICFCCEEFQPAK [G11M] | 2.21
PRCDLVDLGEQKICFCCEEFQPAK [G11Q] | 2.98
PRCDLVDLGETKICFCCEEFQPAK [G11T] | 2.64
PRCDLVDLGEVKICFCCEEFQPAK [G11V] | 1.05

Variant | protein stability index
PRCDLVDLGEDKICFCCEEFQPAK [G11D] | 3.28
PRCDLVDLGEPKICFCCEEFQPAK [G11P] | 2.52
PRCDLVDLGEEKICFCCEEFQPAK [G11E] | 3.44
PRCDLVDLSEGKICFCCEEFQPAK [G9S] | 2.77
PRCDLVDLNEGKICFCCEEFQPAK [G9N] | 2.28
PRCDLVDLYEGKICFCCEEFQPAK [G9Y] | 2.94
PRCDLVDLEEGKICFCCEEFQPAK [G9E] | 2.86
PRCDLVDLWEGKICFCCEEFQPAK [G9W] | 2.08
PRCDLVDLQEGKICFCCEEFQPAK [G9Q] | 2.33
PRCDLVDLMEGKICFCCEEFQPAK [G9M] | 2.04
PRCDLVDLLEGKICFCCEEFQPAK [G9L] | 2.21
PRCDLVDLAEGKICFCCEEFQPAK [G9A] | 2.9
PRCDLVDLIEGKICFCCEEFQPAK [G9I] | 2.24
PRCDLVDLREGKICFCCEEFQPAK [G9R] | 2.14
PRCDLVDLCEGKICFCCEEFQPAK [G9C] | 2.91
PRCDLVDLVEGKICFCCEEFQPAK [G9V] | 2.52
PRCDLVDLDEGKICFCCEEFQPAK [G9D] | 3.18
PRCDLVDLFEGKICFCCEEFQPAK [G9F] | 1.77
PRCDLVDLKEGKICFCCEEFQPAK [G9K] | 2.96
PRCDLVDLTEGKICFCCEEFQPAK [G9T] | 2.83
PRCDLVDLHEGKICFCCEEFQPAK [G9H] | 3.06
PRCDLVDLPEGKICFCCEEFQPAK [G9P] | 2.99
